Numbering of substitutions follows the chain as printed. Names and notes keep the numbering of the source.

The labels stand for the following.
B1: human IL12 wild type (hIL-12p40 wild type with hIL-12p35-8X His) (ligand)
chain 1: IWELKKDVYVVELDWYPDAPGEMVVLTCDTPEEDGITWTLDQSSEVLGSGKTLTIQVKEFGDAGQYTCHKGGEVLSHSLLLLHKKEDGIWSTDILKDQKEPKNKTFLRCEAKNYSGRFTCWWLTTISTDLTFSVKSSRGSSDPQGVTCGAATLSAERVRGDNKEYEYSVECQEDSACPAAEESLPIEVMVDAVHKLKYENYTSSFFIRDIIKPDPPKNLQLKPLKNSRQVEVSWEYPDTWSTPHSYFSLTFCVQVQGKSKREKKDRVFTDKTSATVICRKNASISVRAQDRYYSSSWSEWASVPCS
chain 2: RNLPVATPDPGMFPCLHHSQNLLRAVSNMLQKARQTLEFYPCTSEEIDHEDITKDKTSTVEACLPLELTKNESCLNSRETSFITNGSCLASRKTSFMMALCLSSIYEDLKMYQVEFKTMNAKLLMDPKRQIFLDQNMLAVIDELMQALNFNSETVPQKSSLEEPDFYKTKIKLCILLHAFRIRAVTIDRVMSYLNASGSHHHHHHHH
B2: human IL12 mutein, hIL-12p40 E81A, F82C with hIL-12p35-8X His (ligand)
chain 1: B1 chain 1 with E59A, F60C
chain 2: B1 chain 2
B3: human IL12 mutein, hIL-12p40 E81A, F82H with hIL-12p35-8X His (ligand)
chain 1: B1 chain 1 with E59A, F60H
chain 2: B1 chain 2
B4: human IL12 mutein, hIL-12p40 E81A, F82P with hIL-12p35-8X His (ligand)
chain 1: B1 chain 1 with E59A, F60P
chain 2: B1 chain 2
B5: human IL12 mutein, hIL-12p40 E81A, F82Q with hIL-12p35-8X His (ligand)
chain 1: B1 chain 1 with E59A, F60Q
chain 2: B1 chain 2
B6: human IL12 mutein, hIL-12p40 E81A, F82I with hIL-12p35-8X His (ligand)
chain 1: B1 chain 1 with E59A, F60I
chain 2: B1 chain 2
B7: human IL12 mutein, hIL-12p40 E81A, F82L with hIL-12p35-8X His (ligand)
chain 1: B1 chain 1 with E59A, F60L
chain 2: B1 chain 2
B8: human IL12 mutein, hIL-12p40 E81A, F82M with hIL-12p35-8X His (ligand)
chain 1: B1 chain 1 with E59A, F60M
chain 2: B1 chain 2
B9: human IL12 mutein, hIL-12p40 E81A, F82F with hIL-12p35-8X His (ligand)
chain 1: B1 chain 1 with E59A
chain 2: B1 chain 2
B10: human IL12 mutein, hIL-12p40 E81A, F82D with hIL-12p35-8X His (ligand)
chain 1: B1 chain 1 with E59A, F60D
chain 2: B1 chain 2
B11: human IL12 mutein, hIL-12p40 E81A, F82G with hIL-12p35-8X His (ligand)
chain 1: B1 chain 1 with E59A, F60G
chain 2: B1 chain 2
B12: human IL12 mutein, hIL-12p40 E81S, F82A with hIL-12p35-8X His (ligand)
chain 1: B1 chain 1 with E59S, F60A
chain 2: B1 chain 2
B13: human IL12 mutein, hIL-12p40 E81R, F82A with hIL-12p35-8X His (ligand)
chain 1: B1 chain 1 with E59R, F60A
chain 2: B1 chain 2
B14: human IL12 mutein, hIL-12p40 E81N, F82A with hIL-12p35-8X His (ligand)
chain 1: B1 chain 1 with E59N, F60A
chain 2: B1 chain 2
B15: human IL12 mutein, hIL-12p40 E81G, F82A with hIL-12p35-8X His (ligand)
chain 1: B1 chain 1 with E59G, F60A
chain 2: B1 chain 2

The first test deals with T1, hIL-12 receptor signaling complex (hIL-12Rβ1 and hIL-12Rβ2) (human, UniProt P42701 24-662; Q99665 24-862). The test can be described thus: cell-based or functional assay.
T1 sequence (Q99665 24-862, chain 2 of 2, other chains not shown): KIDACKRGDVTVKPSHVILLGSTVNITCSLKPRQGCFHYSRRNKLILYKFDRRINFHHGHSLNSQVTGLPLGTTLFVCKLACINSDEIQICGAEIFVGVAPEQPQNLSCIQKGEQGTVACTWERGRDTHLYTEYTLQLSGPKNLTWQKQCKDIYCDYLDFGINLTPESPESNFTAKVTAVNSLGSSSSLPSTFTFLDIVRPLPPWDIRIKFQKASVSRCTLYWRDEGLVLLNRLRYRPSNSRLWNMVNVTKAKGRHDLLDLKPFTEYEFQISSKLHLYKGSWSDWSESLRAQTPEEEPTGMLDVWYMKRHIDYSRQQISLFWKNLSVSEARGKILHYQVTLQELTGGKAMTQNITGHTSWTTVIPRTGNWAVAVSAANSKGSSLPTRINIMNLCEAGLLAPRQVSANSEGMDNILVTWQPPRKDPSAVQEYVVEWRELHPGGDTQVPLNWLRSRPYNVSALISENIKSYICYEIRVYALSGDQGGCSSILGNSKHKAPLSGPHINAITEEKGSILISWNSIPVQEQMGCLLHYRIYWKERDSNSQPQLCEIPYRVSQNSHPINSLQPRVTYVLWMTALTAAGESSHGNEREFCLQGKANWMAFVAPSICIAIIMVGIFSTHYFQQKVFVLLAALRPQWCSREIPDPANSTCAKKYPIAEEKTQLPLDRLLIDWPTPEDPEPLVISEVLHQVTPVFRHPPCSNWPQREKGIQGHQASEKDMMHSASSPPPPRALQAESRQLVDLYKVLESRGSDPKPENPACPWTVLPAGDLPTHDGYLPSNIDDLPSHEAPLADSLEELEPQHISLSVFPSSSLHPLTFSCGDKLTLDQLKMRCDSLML
As for B1, the “pSTAT4 [gMFI] EC50, CD8+ T Cells” value stood at 30 pM; the “pSTAT4 [gMFI] EC50, CD56hi NK Cells” value is 60 pM; the “pSTAT4 [gMFI] Emax, CD8+ T Cells” value was 121000 gMFI; the “pSTAT4 [gMFI] Emax, CD56hi NK Cells” value turned out to be 37700 gMFI.
The like results for B2 were, in that order, 12.7 nM, 30 nM, 87500 gMFI and 27000 gMFI.
The corresponding values for B3 are 4.04 nM, 8.57 nM, 108000 gMFI and 33500 gMFI.
The corresponding values for B4 are 2.87 nM, 8.04 nM, 94000 gMFI and 29600 gMFI.
As for B5, the “pSTAT4 [gMFI] EC50, CD8+ T Cells” value came to 4.92 nM; the “pSTAT4 [gMFI] EC50, CD56hi NK Cells” value was 9.87 nM; the “pSTAT4 [gMFI] Emax, CD8+ T Cells” value stood at 91400 gMFI; the “pSTAT4 [gMFI] Emax, CD56hi NK Cells” value came out at 25900 gMFI.
The like results for B6 were, in that order, 5.72 nM, 10.4 nM, 106000 gMFI and 30500 gMFI.
Take B7: the “pSTAT4 [gMFI] EC50, CD8+ T Cells” value is 3.12 nM; the “pSTAT4 [gMFI] EC50, CD56hi NK Cells” value is 7.21 nM; the “pSTAT4 [gMFI] Emax, CD8+ T Cells” value was found to be 100000 gMFI; the “pSTAT4 [gMFI] Emax, CD56hi NK Cells” value is 31100 gMFI.
The corresponding values for B8 are 2.64 nM, 4.26 nM, 109000 gMFI and 32200 gMFI.
The like results for B9 were, in that order, 0.2 nM, 0.63 nM, 107000 gMFI and 36600 gMFI.
In the case of B10, the “pSTAT4 [gMFI] EC50, CD8+ T Cells” value came to 8.72 nM; the “pSTAT4 [gMFI] EC50, CD56hi NK Cells” value was found to be 15.9 nM; the “pSTAT4 [gMFI] Emax, CD8+ T Cells” value was determined as 84000 gMFI; the “pSTAT4 [gMFI] Emax, CD56hi NK Cells” value was 23300 gMFI.
The like results for B11 were, in that order, 4.92 nM, 13.5 nM, 98200 gMFI and 30300 gMFI.

The target in a further test is T1, hIL-12 receptor signaling complex …. Nature of the test: cell-based or functional assay. The source holds these as a separate data set.
In the case of B1, the “pSTAT4 [%+] EC50, CD8+ T Cells” value was found to be 10 pM; the “pSTAT4 [%+] EC50, CD56hi NK Cells” value is 10 pM; the “pSTAT4 [%+] Emax, CD8+ T Cells” value was found to be 85 %+; the “pSTAT4 [%+] Emax, CD56hi NK Cells” value came out at 91.4 %+.
Consider B2, for which the “pSTAT4 [%+] EC50, CD8+ T Cells” value came out at 3.4 nM; the “pSTAT4 [%+] EC50, CD56hi NK Cells” value stood at 5.08 nM; the “pSTAT4 [%+] Emax, CD8+ T Cells” value came out at 79 %+; the “pSTAT4 [%+] Emax, CD56hi NK Cells” value was 85.2 %+.
B3: the “pSTAT4 [%+] EC50, CD8+ T Cells” value is 0.55 nM; the “pSTAT4 [%+] EC50, CD56hi NK Cells” value is 0.97 nM; the “pSTAT4 [%+] Emax, CD8+ T Cells” value turned out to be 79.6 %+; the “pSTAT4 [%+] Emax, CD56hi NK Cells” value worked out at 89.7 %+.
The corresponding values for B4 are 0.71 nM, 1.15 nM, 79.7 %+ and 87.6 %+.
With B5, the “pSTAT4 [%+] EC50, CD8+ T Cells” value was 1.08 nM; the “pSTAT4 [%+] EC50, CD56hi NK Cells” value came to 2.05 nM; the “pSTAT4 [%+] Emax, CD8+ T Cells” value was 78.5 %+; the “pSTAT4 [%+] Emax, CD56hi NK Cells” value worked out at 85.1 %+.
As for B6, the “pSTAT4 [%+] EC50, CD8+ T Cells” value amounted to 0.67 nM; the “pSTAT4 [%+] EC50, CD56hi NK Cells” value was found to be 0.9 nM; the “pSTAT4 [%+] Emax, CD8+ T Cells” value turned out to be 79.2 %+; the “pSTAT4 [%+] Emax, CD56hi NK Cells” value was determined as 86 %+.
The like results for B7 were, in that order, 0.71 nM, 1.08 nM, 80.2 %+ and 89.1 %+.
In the case of B8, the “pSTAT4 [%+] EC50, CD8+ T Cells” value stood at 0.52 nM; the “pSTAT4 [%+] EC50, CD56hi NK Cells” value came out at 0.74 nM; the “pSTAT4 [%+] Emax, CD8+ T Cells” value amounted to 82.2 %+; the “pSTAT4 [%+] Emax, CD56hi NK Cells” value came to 88.1 %+.
The corresponding values for B9 are 70 pM, 0.13 nM, 83.3 %+ and 93.5 %+.
Regarding B10, the “pSTAT4 [%+] EC50, CD8+ T Cells” value is 2.13 nM; the “pSTAT4 [%+] EC50, CD56hi NK Cells” value is 3.51 nM; the “pSTAT4 [%+] Emax, CD8+ T Cells” value amounted to 76.6 %+; the “pSTAT4 [%+] Emax, CD56hi NK Cells” value came to 84.1 %+.
The like results for B11 were, in that order, 1 nM, 1.7 nM, 80.1 %+ and 88 %+.

Another test has the same target. The test can be described thus: cell-based or functional assay. The source holds these as a separate data set.
B12: the “IFNy [gMFI] EC50, CD8+ T Cells” value was 210 pM; the “IFNy [gMFI] EC50, CD56hi NK Cells” value is 730 pM; the “IFNy [gMFI] Emax, CD8+ T Cells” value amounted to 11300 gMFI; the “IFNy [gMFI] Emax, CD56hi NK Cells” value turned out to be 206000 gMFI.
The corresponding values for B13 are 350 pM, 750 pM, 16300 gMFI and 156000 gMFI.
The corresponding values for B14 are 430 pM, 600 pM, 11400 gMFI and 165000 gMFI.
As for B15, the “IFNy [gMFI] EC50, CD8+ T Cells” value came to 140 pM; the “IFNy [gMFI] EC50, CD56hi NK Cells” value is 290 pM; the “IFNy [gMFI] Emax, CD8+ T Cells” value stood at 10700 gMFI; the “IFNy [gMFI] Emax, CD56hi NK Cells” value was determined as 181000 gMFI.

For the next test the target is unchanged. Nature of the test: cell-based or functional assay. This is another data set of the same source.
On to B12, for which the “IFNy [%+] EC50, CD8+ T Cells” value worked out at 101 pM; the “IFNy [%+] EC50, CD56hi NK Cells” value came out at 14 pM; the “IFNy [%+] Emax, CD8+ T Cells” value was 69 %+; the “IFNy [%+] Emax, CD56hi NK Cells” value was found to be 94.9 %+.
As to B13, the “IFNy [%+] EC50, CD8+ T Cells” value worked out at 178 pM; the “IFNy [%+] EC50, CD56hi NK Cells” value turned out to be 36 pM; the “IFNy [%+] Emax, CD8+ T Cells” value worked out at 81.6 %+; the “IFNy [%+] Emax, CD56hi NK Cells” value is 94 %+.
Regarding B14, the “IFNy [%+] EC50, CD8+ T Cells” value is 195 pM; the “IFNy [%+] EC50, CD56hi NK Cells” value turned out to be 22 pM; the “IFNy [%+] Emax, CD8+ T Cells” value was 68.2 %+; the “IFNy [%+] Emax, CD56hi NK Cells” value amounted to 92.8 %+.
The corresponding values for B15 are 80 pM, 10 pM, 67.4 %+ and 93.8 %+.

These data come from patent US20250388640A1 (SYNTHEKINE, published 2025).
